# Values joined by “and” are separate entries in the source; they are usually repeats but may differ in a detail not shown here. Equal entries are not always repeated.
# T1: Kremen1 extracellular domain Fc fusion protein (human, UniProt Q96MU8 21-392)
# T1 chain: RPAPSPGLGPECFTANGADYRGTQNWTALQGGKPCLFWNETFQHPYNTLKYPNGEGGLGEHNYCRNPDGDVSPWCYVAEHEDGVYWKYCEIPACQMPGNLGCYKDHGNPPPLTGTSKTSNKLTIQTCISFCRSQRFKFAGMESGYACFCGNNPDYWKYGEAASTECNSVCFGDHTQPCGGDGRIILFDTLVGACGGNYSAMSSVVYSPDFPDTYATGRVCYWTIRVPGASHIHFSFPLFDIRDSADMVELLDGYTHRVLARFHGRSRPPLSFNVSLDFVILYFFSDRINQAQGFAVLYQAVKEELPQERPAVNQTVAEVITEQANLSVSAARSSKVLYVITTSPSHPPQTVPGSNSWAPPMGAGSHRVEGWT
# T2: Kremen1 extracellular domain Fc fusion protein (human, UniProt Q96MU8 21-392)
# T2 construct: Kremen1 (Krm1), human, extracellular domain (kringle, WSC and CUB domains); also called Krm1 ECD-Fc; Krm1 ECD; source: expressed, in cell culture medium (supernatants); host in the supporting material
# T2 sequence (looked up): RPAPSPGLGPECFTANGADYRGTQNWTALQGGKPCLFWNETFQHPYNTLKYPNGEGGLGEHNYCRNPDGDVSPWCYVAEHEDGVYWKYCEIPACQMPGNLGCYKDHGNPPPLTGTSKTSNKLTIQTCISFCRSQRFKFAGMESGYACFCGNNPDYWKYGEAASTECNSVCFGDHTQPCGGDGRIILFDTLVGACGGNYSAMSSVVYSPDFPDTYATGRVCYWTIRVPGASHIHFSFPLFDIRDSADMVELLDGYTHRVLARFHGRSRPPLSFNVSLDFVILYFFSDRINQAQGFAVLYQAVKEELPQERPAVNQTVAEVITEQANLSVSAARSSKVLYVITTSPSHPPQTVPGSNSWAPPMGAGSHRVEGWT
# T3: LRP6 E1E2-Fc (β-propeller domains 1 and 2 of low-density lipoprotein receptor-related protein 6, Fc fusion) (human)
# T3 chain: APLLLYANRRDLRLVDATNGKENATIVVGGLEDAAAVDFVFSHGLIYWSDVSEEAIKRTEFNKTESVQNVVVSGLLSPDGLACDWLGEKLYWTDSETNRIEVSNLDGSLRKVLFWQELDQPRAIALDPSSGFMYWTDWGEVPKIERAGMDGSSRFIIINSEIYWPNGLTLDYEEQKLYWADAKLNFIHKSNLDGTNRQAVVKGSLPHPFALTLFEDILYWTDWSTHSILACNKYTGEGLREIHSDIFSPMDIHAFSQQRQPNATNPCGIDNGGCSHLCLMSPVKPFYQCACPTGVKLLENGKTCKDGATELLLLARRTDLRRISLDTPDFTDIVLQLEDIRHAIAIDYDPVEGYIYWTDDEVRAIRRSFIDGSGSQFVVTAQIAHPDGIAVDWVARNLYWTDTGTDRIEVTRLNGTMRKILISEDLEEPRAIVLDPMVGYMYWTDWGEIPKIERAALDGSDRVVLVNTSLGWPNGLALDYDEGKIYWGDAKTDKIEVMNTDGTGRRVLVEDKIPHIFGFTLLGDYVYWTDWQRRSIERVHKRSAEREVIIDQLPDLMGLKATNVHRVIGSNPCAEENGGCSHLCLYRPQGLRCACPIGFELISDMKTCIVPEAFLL
# T4: N-terminal region of Dkk4 including CRD1, residues 19-97 (human, UniProt Q9UBT3 19-97)
# T4 construct: Dickkopf 4 (Dkk4), human, N-terminal region with the NXI(R/K) motif and CRD1, residues 19-97; residues numbered from the N-terminal methionine; construct details are in the supporting material; also called Dkk4N; isolated Dkk4N region; not shown: His6 (with linker), C-terminal, kept
# T4 sequence (looked up): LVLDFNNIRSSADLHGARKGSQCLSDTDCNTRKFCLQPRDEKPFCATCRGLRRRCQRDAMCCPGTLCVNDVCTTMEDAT
# B1: full-length mature Dkk4 (Dickkopf 4), residues 19-224, His-tagged (natural protein, human, UniProt Q9UBT3 19-224, looked up)
# chain: LVLDFNNIRSSADLHGARKGSQCLSDTDCNTRKFCLQPRDEKPFCATCRGLRRRCQRDAMCCPGTLCVNDVCTTMEDATPILERQLDEQDGTHAEGTTGHPVQENQPKRKPSIKKSQGRKGQEGESCLRTFDCGPGLCCARHFWTKICKPVLLEGQVCSRRGHKDTAQAPEIFQRCDCGPGLLCRSQLTSNRQHARLRVCQKIEKL
# modifications: uniformly 15N/13C/2H-labelled in the NMR experiments
# notes: residues numbered from the N-terminal methionine; also called Dkk4FL
# B2: isolated Kremen1 extracellular domain, Fc tag removed (domain or fragment, human, UniProt Q96MU8 21-392, looked up)
# chain: RPAPSPGLGPECFTANGADYRGTQNWTALQGGKPCLFWNETFQHPYNTLKYPNGEGGLGEHNYCRNPDGDVSPWCYVAEHEDGVYWKYCEIPACQMPGNLGCYKDHGNPPPLTGTSKTSNKLTIQTCISFCRSQRFKFAGMESGYACFCGNNPDYWKYGEAASTECNSVCFGDHTQPCGGDGRIILFDTLVGACGGNYSAMSSVVYSPDFPDTYATGRVCYWTIRVPGASHIHFSFPLFDIRDSADMVELLDGYTHRVLARFHGRSRPPLSFNVSLDFVILYFFSDRINQAQGFAVLYQAVKEELPQERPAVNQTVAEVITEQANLSVSAARSSKVLYVITTSPSHPPQTVPGSNSWAPPMGAGSHRVEGWT
# notes: Kremen1 (Krm1), human, extracellular domain (kringle, WSC and CUB domains); Eluted in SEC as monomer (35 kDa) and noncovalent dimer (70 kDa); also called Krm1 ECD; isolated Krm1 ECD; source: prepared from Krm1 ECD-Fc by removal of the Fc tag, size-exclusion chromatography; host in the supporting material
# B3: LRP6 E1E2-Fc (β-propeller domains 1 and 2 of low-density lipoprotein receptor-related protein 6, Fc fusion) (Fc fusion)
# chain: APLLLYANRRDLRLVDATNGKENATIVVGGLEDAAAVDFVFSHGLIYWSDVSEEAIKRTEFNKTESVQNVVVSGLLSPDGLACDWLGEKLYWTDSETNRIEVSNLDGSLRKVLFWQELDQPRAIALDPSSGFMYWTDWGEVPKIERAGMDGSSRFIIINSEIYWPNGLTLDYEEQKLYWADAKLNFIHKSNLDGTNRQAVVKGSLPHPFALTLFEDILYWTDWSTHSILACNKYTGEGLREIHSDIFSPMDIHAFSQQRQPNATNPCGIDNGGCSHLCLMSPVKPFYQCACPTGVKLLENGKTCKDGATELLLLARRTDLRRISLDTPDFTDIVLQLEDIRHAIAIDYDPVEGYIYWTDDEVRAIRRSFIDGSGSQFVVTAQIAHPDGIAVDWVARNLYWTDTGTDRIEVTRLNGTMRKILISEDLEEPRAIVLDPMVGYMYWTDWGEIPKIERAALDGSDRVVLVNTSLGWPNGLALDYDEGKIYWGDAKTDKIEVMNTDGTGRRVLVEDKIPHIFGFTLLGDYVYWTDWQRRSIERVHKRSAEREVIIDQLPDLMGLKATNVHRVIGSNPCAEENGGCSHLCLYRPQGLRCACPIGFELISDMKTCIVPEAFLL
# B4: N-terminal region of Dkk4 including CRD1, residues 19-97 (domain or fragment)
# chain: LVLDFNNIRSSADLHGARKGSQCLSDTDCNTRKFCLQPRDEKPFCATCRGLRRRCQRDAMCCPGTLCVNDVCTTMEDAT
# B5: full-length mature Dkk2 (Dickkopf 2), residues 38-259, His-tagged (natural protein, human, UniProt Q9UBU2 38-259, looked up)
# chain: IKSSLGGETPGQAANRSAGMYQGLAFGGSKKGKNLGQAYPCSSDKECEVGRYCHSPHQGSSACMVCRRKKKRCHRDGMCCPSTRCNNGICIPVTESILTPHIPALDGTRHRDRNHGHYSNHDLGWQNLGRPHTKMSHIKGHEGDPCLRSSDCIEGFCCARHFWTKICKPVLHQGEVCTKQRKKGSHGLEIFQRCDCAKGLSCKVWKDATYSSKARLHVCQKI
# notes: also called Dkk2FL
# Columns and labels:
# [1] = target: T1, Kremen1 extracellular domain Fc fusion …; experiment: BLI; pH 6.5
# [2] = target: T2, Kremen1 extracellular domain Fc fusion …; experiment: BLI; Krm1 ECD-Fc loaded from supernatants on AHC biosensors; Dkk2FL or Dkk4FL 1-1000 nM, Dkk4N 0.1-100 μM; 25 mM Na2HPO4, 100 mM NaCl, 0.05% Triton X-100, pH 6.5; steady-state fit to a one-site model; conditions: one partner purified
# [3] = target: T3, LRP6 E1E2-Fc (β-propeller domains 1 and …); experiment: BLI; pH 7.5
# [4] = target: the molecule itself; experiment: SEC; Superdex 75 10/300 GL, 3 μM Krm1 ECD in 50 mM Na2HPO4, 100 mM NaCl, pH 7.5; apparent masses from a calibration with globular standards; monomer and dimer
# [5] = target: B1; experiment: BLI; LRP6 E1E2-Fc (200 nM) loaded on AHC biosensors; Dkk4FL 1-1000 nM; 25 mM Na2HPO4, 100 mM NaCl, 0.05% Triton X-100, pH 6.5; steady-state fit to a one-site model; conditions: both partners purified
# [6] = target: T4, N-terminal region of Dkk4 including …; experiment: BLI; LRP6 E1E2-Fc (200 nM) loaded on AHC biosensors; Dkk4N 0.1-100 μM; 25 mM Na2HPO4, 100 mM NaCl, 0.05% Triton X-100, pH 6.5 or 7.5 (not told which for the printed KD); later experiments with 0.1% BSA; steady-state fit to a one-site model; conditions: both partners purified
# [7] = target: T3, LRP6 E1E2-Fc (β-propeller domains 1 and …); experiment: BLI; pH 6.5
binder,measurement,setting,value
B1,Kd,[1],93.1 nM
same,Kd,[2],93 to 130 nM
same,Kd,[3],48.7 nM and 55.6 nM
B2,stoichiometry N,[4],2
B3,Kd,[5],64 to 77 nM
same,Kd,[6],11000 to 30000 nM
B4,Kd,[7],11100 nM
B5,Kd,[2],~12 nM

# Reference: PMC6078440, “Structural and functional analysis of Dickkopf 4 (Dkk4): New insights into Dkk evolution and regulation of Wnt signaling by Dkk and Kremen proteins” (The Journal of Biological Chemistry, 2018)
